Measured values taken from patent US20120129778A1 (GlaxoSmithKline, published 2012).
Residue numbers refer to the chain shown, from its start. In names and notes the source's numbering stands. Each block holds one binder with its values, some of them ahead of it.

Experiments:
[1] = target: T1, recombinant human TGF-β RII/Fc chimera protein (R&D systems, cat no. 341-BR) (human, UniProt P37173 23-166); assay: ELISA, plate coated with human TGF-β RII/Fc, dAb supernatant, anti-FLAG detection
T1 construct: extracellular domain; Bought protein, expressed in the mouse myeloma line NS0; also called hTGFb-RII/Fc; hTFGβ-RII-Fc; not shown: Fc region of human IgG1
T1 sequence (P37173 23-166, change not shown): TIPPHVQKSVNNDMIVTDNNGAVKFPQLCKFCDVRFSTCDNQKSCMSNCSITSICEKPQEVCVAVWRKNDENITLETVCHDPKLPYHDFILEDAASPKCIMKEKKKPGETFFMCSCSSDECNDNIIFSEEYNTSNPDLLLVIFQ
Method: dAb clones that bound human TGF-β RII/Fc were identified by an ELISA. 96-well MAXISORP™ immuno plates (Nunc, Denmark) were coated with human TGF-β RII/Fc overnight at 4° C. The wells were washed three times with PBST and then blocked with 1% TWEEN™ in PBS (1% TPBS) for 1 hour at room temperature. The block was removed and a 1:1 mixture of 1% TPBS and dAb supernatant was added for 1 hour at room temperature. The plate was washed with three times with PBST and the detection antibody (Monoclonal anti-FLAG M2-peroxidase antibody, Sigma-aldrich, UK) was added and incubated for 1 hour at room temperature. The plates were developed using a colourimetric substrate (SUREBLUE™ 1-component TMB Microwell Peroxidase solution, KPL, Maryland, USA) and the optical density (OD) measured at […], the OD₄₅₀ being proportional to the amount of bound detection antibody.

[2] = target: T1, recombinant human TGF-β RII/Fc chimera …; assay: SPR (BIACORE 3000), hTGFb-RII/Fc coupled to a CM5 chip, co-inject; injection 1 = DOM23h-437-9 alone at 100 nM
Method: (§1) The SPR experiments were performed on a BIACORE™ 3000 instrument (BIACORE™, GE […]®, Sweden). hTGFb-RII/Fc antigen at 50 ug/ml in 10 mM sodium acetate buffer, pH 4 (BIACORE™, GE […]®, Sweden) was coupled to a CM5 sensor chip (BIACORE™, GE […]®, Sweden), according to the manufacturer's instructions. Approximately 5500 RUs of antigen were coupled. A blank flow cell was used as a reference. Purified dAbs were diluted in HBS-EP buffer (BIACORE™, GE […]®, Sweden) and flowed over the antigen-coated and blank flow cells at a rate of 30 μl/minute using the co-inject command. The coinject command allows the injection of a second sample immediately after the first one. The first injection consisted of a single dAb and the second injection consisted of a mixture of the first dAb and a second dAb. All dAbs were used at concentrations high enough to bind the antigen surface with maximal capacity. If the maximal binding capacity of the antigen surface by the first dAb can be exceeded by injecting the mixture of the two dAbs, the second dAb is likely to […] a different binding site or epitope on the antigen. If no further binding is observed following the second injection, then the two dAbs are likely to compete for the same antigen binding site. […]

[3] = target: T1, recombinant human TGF-β RII/Fc chimera …; assay: SPR (BIACORE 3000), hTGFb-RII/Fc coupled to a CM5 chip, co-inject; injection 1 = DOM23h-437-6 alone at 100 nM
Method: as §1

[4] = target: T1, recombinant human TGF-β RII/Fc chimera …; assay: SPR (BIACORE 3000), hTGFb-RII/Fc coupled to a CM5 chip, co-inject; injection 2 = mixture of DOM23h-437-6 (100 nM) and DOM23h-271-3 (500 nM) on a surface saturated with DOM23h-437-6
Method: as §1

[5] = target: T1, recombinant human TGF-β RII/Fc chimera …; assay: SPR (BIACORE 3000), hTGFb-RII/Fc coupled to CM5 chip, 100 nM dAb co-injected with 100 nM DOM23h-437-9 (competitor)
Method: as §1

[6] = target: human TGF-β receptor type II on human cells (A549, SBE-bla HEK 293T) (human, UniProt P37173 23-567); assay: cell-based or functional assay
human TGF-β receptor type II on human cells (A549, SBE-bla HEK 293T), sequence (P37173 23-567): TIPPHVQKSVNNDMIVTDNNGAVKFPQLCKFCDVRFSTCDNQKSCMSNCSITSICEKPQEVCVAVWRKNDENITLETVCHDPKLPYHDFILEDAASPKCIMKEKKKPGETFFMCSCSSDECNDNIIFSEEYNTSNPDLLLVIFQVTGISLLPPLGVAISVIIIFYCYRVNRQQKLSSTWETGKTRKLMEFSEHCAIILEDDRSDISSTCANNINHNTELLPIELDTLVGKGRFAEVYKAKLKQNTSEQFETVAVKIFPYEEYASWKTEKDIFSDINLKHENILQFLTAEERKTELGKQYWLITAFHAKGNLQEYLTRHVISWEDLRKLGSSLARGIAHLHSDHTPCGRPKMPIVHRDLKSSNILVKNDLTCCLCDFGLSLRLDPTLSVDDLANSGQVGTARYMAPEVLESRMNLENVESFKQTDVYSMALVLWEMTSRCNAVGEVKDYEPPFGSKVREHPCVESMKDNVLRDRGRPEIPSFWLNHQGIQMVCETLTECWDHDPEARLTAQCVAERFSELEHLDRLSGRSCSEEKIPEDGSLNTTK

[7] = target: T1, recombinant human TGF-β RII/Fc chimera …; assay: SPR (BIACORE 3000), hTGFb-RII/Fc coupled to a CM5 chip, co-inject; injection 2 = mixture of DOM23h-437-6 (100 nM) and DOM23h-439-6 (500 nM) on a surface saturated with DOM23h-437-6
Method: as §1

B1: DOM23h-437 (other)
VH: EVQLLESGGGLVQPGGSLRLSCAASGFTFSDYRMWWVRQAPGKGLEWVSAIDSQGHTTYYADSVKGRFTISRDNSKNTLYLQMNSLRAEDTAVYYCAKYGGYFDYWGQGTLVTVSS
notes: VH dAb
binding result [1]: binds

B2: DOM23h-435 (other)
chain: B1 VH with S21T, S30T, Y32D, S53P, H56Q, T57H, Y99H, G100N, G101S, Y102S
notes: Naive dAb
binding result [1]: binds

B3: DOM23h-251 (other)
chain: EVQLLESGGGLVQPGGSLRLSCAASGFTFSDYDMWWVRQAPGKGLEWVSKITQKGDFTYYADSVKGRFTISRDNSKNTLYLQMNSLRAEDTAVYYCAKDATHFDYWGQGTLVTVSS
notes: Naive dAb
binding result [1]: binds

B11: DOM23h-271-3 (other)
VH: EVQLLESGGGLVQPGGSLRLSCTASGFTFTEYRMWWVRQAPGKGLEWVSLIEPIGNRTYYADSVKGRFTISRDNSKNTLYLQMNSLRAEDTAVYYCAKQIPGHMWTANPRSDYWGQGTQVTVSS
notes: VH dAb
binding result [4]: binds

B14: DOM23h-262-6 (other)
VH: EVQLLESGGGLVQPGGSLRLSCAASGFTFFNYEMAWARQAPGKGLEWVSLISAEGTRTYYANSVKGRFTISRDNSKNTLYLQMNSLRAEDTAVYYCAKRRDASMGHTTRRFDHWGQGTLVTVSS
potency in the A549 IL-11 release assay relative to DOM23h-262 [6]: 54 fold

B15: DOM23h-262 (other)
VH: B14 VH with N62D, H113Y
notes: Domain antibody (dAb), human immunoglobulin single variable domain, soluble monomer
binding result [1]: binds

B16: DOM23h-262-10 (other)
VH: B14 VH with Q39R, E54D, K65R, H113Y, W114S
potency in the A549 IL-11 release assay relative to DOM23h-262 [6]: 540 fold

B17: DOM23h-439-6 (other)
VH: EVQLLESGGGLVRPGGSLRLSCAASGFTFGTEQMWWVRQAPGKGLEWVSRIDSPGGRTYYADSVRGRFTISRDNSKNTLYLQMNSLRAEDTAVYYCAKRHAAGVSGTYFDYWGQGTLVTVSS
notes: VH dAb, already contains K64R
binding result [7]: binds

The remaining lines, values ahead:

binding result [1]: binds
B4: DOM23h-436 (other)
chain: EVQLLESGGGLVQPGGSLRLSCAASGFTFSDYKMGWVRQAPGKGLEWVSSIWPNGGLTYYADSVKGRFTISRDNSKNTLYLQMNSLRAEDTAVYYCAKDHMGFDYWGQGTLVTVSS
notes: Naive dAb

binding result [1]: binds
B5: DOM23h-440 (other)
chain: B1 VH with S30T, Y32D, S53P, H56Q, T57H, Y99E, G100L, G101L, Y102S
notes: Naive dAb

binding result [2]: binds
B6: DOM23h-437-9 (other)
VH: B1 VH with A24T, D62N, K65R
notes: VH dAb; also called DOM437-9

binding result [1]: binds
B7: DOM23h-33 (other)
chain: B3 chain with D31Q, D33R, K50A, T52A, Q53P, K54S, F57N, D99H, A100R, H102S
notes: Naive dAb (immunoglobulin single variable domain)

binding result [3]: binds
B8: DOM23h-437-6 (other)
VH: B1 VH with A24T
notes: VH dAb

binding result [1]: binds
B9: DOM23h-438 (other)
chain: EVQLLESGGGLVQPGGSLRLSCAASGFTFAQGDMWWVRQAPGKGLEWVSRIGMDGDKTYYADSVKGRFTISRDNSKNTLYLQMNSLRAEDTAVYYCAKGPSSTSPFDYWGQGTLVTVSS
notes: Naive dAb

binding result [1]: binds
B10: DOM23h-348 (other)
chain: EVQLLESGGGLVQPGGSLRLSCAASGFTFSDYDMAWARQAPGKGLEWVSRISHSGYSTYYADSVKGRFTISRDNSKNTLYLQMNSLRAEDTAVYYCAKRSWDGVHAQFDYWGQGTLVTVSS
notes: Naive dAb

binding result [1]: binds
B12: DOM23h-271 (other)
VH: B11 VH with T23A, L50S, M104K, P109S, S111F, Q119L
notes: VH dAb

binding result [5]: binds
B13: DOM23h-271-12 (other)
VH: B11 VH with D62N, K65R
notes: VH dAb; also called DOM23h-271-3 + D61N + K64R

binding result [1]: binds
B18: DOM23h-439 (other)
VH: B17 VH with R13Q, R65K
notes: VH dAb

binding result [5]: binds
B19: DOM23h-439-8 (other)
VH: B17 VH with D62N
notes: VH dAb; also called DM23h-439-8; DOM23h-439-6 + D61N + K64R
